Data set [1] concerns RdhK1 (CprK4) (Desulfitobacterium hafniense DCB-2). The data set can be described thus: EMSA. The following applies: no effector; EMSA: 100 ng DNA, 2 uM protein, 200 uM effector, 15 uL; buffer 100 mM Tris-HCl pH 8.5, 40% glycerol, 10 mM MgCl2, 500 mM NaCl, 5 mM EDTA, 10 mM DTT …. For orientation: A gel shift assay detects complexes by their altered migration in electrophoresis.

For data set [2], the target named is RdhK6 (CprK1) (Desulfitobacterium hafniense DCB-2) (UniProt Q18R04). The data set can be described thus: EMSA. The following applies: 200 uM Cl-OHPA; EMSA: 100 ng DNA, 2 uM protein, 200 uM effector, 15 uL; buffer 100 mM Tris-HCl pH 8.5, 40% glycerol, 10 mM MgCl2, 500 mM NaCl, 5 mM EDTA, 10 mM DTT ….

As to “GAATTCTCAGGCGATGTAACCGCTTTCAAATTTAGTATACGCTAAATATCTTAACAATGTGATAGCTATGATTGCACCG (double strand) [mgl-DB8]”, the binding signal in data set [1] amounted to 80 % DNA bound; in data set [2] it was 100 % DNA bound.
In the case of “GAATTCTCAGGCGATGTAACCGCTTTCAAAGTTAATACACATTAATACTCTTAACAATGTGATAGCTATGATTGCACCG (double strand) [mgl-DB7]”, the binding signal in data set [1] is 10 % DNA bound; in data set [2], 100 % DNA bound.
